Test results as given in US20210032312A1 (Janssen / Centocor, published 2021).
Residue numbers refer to the chain shown, from its start. One block for each binder: values may come before it.

What was measured:
[1] = target: T1, human CD8 alpha (CD8A) on primary human CD8+ T cells (human, UniProt P01732 22-235); assay: flow cytometry, human CD8+ T cells, 0.2 uM FN3
T1 construct: whole, on cells; also called hCD8A
Description: (§1) Binding of the 190 ELISA hits to human and cynomologous monkey primary CD8 T cells was assessed by flow cytometry. The FN3 domain molecules were diluted to 2 μM and 0.2 μM in PBS and incubated with human or cynomologous monkey CD8+ T cells in 96-well format. After 1 hour at 4 C, the cells were washed once with PBS and then resuspended with an anti-FN3 domain antibody (PAB25) solution. Following this incubation, the cells were washed twice with PBS and a PE conjugated secondary antibody and a viability dye were added. Finally, cells were washed and resuspended in PBS for flow cytometric analysis using a BD Canto Instrument. Cells were gating on live cells and median fluorescence intensity of the bound Centyrins (PE channel) was calculated using Cytobank software.

[2] = target: T1, human CD8 alpha (CD8A) on primary human …; assay: flow cytometry, human CD8+ T cells, 2 uM FN3
Description: as §1

[3] = target: T2, In house human CD8A-Fc (human, UniProt P01732 22-182, limits assumed); assay: SPR (ProteOn), captured hCD8A-Fc
T2 construct: Captured on goat anti-human Fc on a ProteOn GLC chip; also called hCD8A-Fc; recombinant human CD8 alpha; not shown: linker with flag (and polyhistidine) tag and Fc of human IgG1
Description: Purified anti-CD8A FN3 domains were subjected to off-rate analysis using a Proteon surface plasmon resonance instrument in order to pick clones with the slowest off-rates for further characterization.
The immobilized GAH-Fc IgG densities averaged about 6000 Response Units (Ru) with less than 1% variation among different channels. In house human CD8A-Fc was captured in vertical orientation at 3 different ligand densities, 10, 5, 2.5 μg/ml for 5 minutes at 30 ul/minute flowrate. All FN3 domains were normalized to a 3 μM concentration, and tested for binding in horizontal orientation. All 6 analyte channels were used for FN3 domains to maximize the screening throughput. The dissociation phase was monitored for 15 minutes at a flow rate of 100 μl/min using PBST as running buffer. […] Data analyses were performed using Bio-Rad ProteOn Manager software (version 3.1.0.6). Raw data were double referenced by subtraction of the interspot (empty chip surface, no protein immobilized or captured) signals to correct the non-specific binding of the FN3 domain to the pre-coated GAH-Fc IgG surface, followed by a double correction using empty channel L6 where no hCD8A-Fc was captured. The processed binding data were locally fit to a 1:1 simple Langmuir binding model to extract the koff for each FN3 domain binding to captured hCD8A-Fc.

[4] = target: T3, cynomolgus monkey CD8A on primary cynomolgus monkey CD8+ T cells (cynomolgus monkey, UniProt P01732 23-235 (human entry)); assay: flow cytometry, cyno CD8+ T cells, 0.2 uM FN3
T3 construct: also called Cyno CD8alpha
Description: as §1

[5] = target: T3, cynomolgus monkey CD8A on primary …; assay: flow cytometry, cyno CD8+ T cells, 2 uM FN3
Description: as §1

T2 sequence (P01732 22-182 limits assumed): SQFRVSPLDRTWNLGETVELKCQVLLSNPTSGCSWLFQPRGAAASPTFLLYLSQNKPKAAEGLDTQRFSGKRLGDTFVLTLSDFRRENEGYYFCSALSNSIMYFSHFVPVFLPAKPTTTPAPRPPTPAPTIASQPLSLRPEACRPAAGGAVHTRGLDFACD
T3 sequence (P01732 other isoform, or with tags, fused parts or gaps limits assumed): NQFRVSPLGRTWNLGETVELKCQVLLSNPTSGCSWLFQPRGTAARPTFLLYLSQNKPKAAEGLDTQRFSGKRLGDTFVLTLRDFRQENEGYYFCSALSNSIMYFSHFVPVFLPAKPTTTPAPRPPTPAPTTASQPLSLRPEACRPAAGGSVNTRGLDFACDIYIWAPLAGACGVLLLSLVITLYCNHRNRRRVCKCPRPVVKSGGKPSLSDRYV
T1 sequence (P01732 22-235): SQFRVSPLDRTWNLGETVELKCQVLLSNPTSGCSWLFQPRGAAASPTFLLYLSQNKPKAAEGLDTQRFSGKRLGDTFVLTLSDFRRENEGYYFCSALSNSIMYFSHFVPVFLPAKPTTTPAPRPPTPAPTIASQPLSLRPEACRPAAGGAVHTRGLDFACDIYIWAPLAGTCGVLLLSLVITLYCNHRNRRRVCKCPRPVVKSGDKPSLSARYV

Human T-cell Binding 0.2 uM (MFI) [1]: 1570 MFI
Human T-cell Binding 2 uM (MFI) [2]: 9610 MFI
koff [3]: 0.00105 s⁻¹
Cyno T-cell Binding 0.2 uM (MFI) [4]: 2520 MFI
Cyno T-cell Binding 2 uM (MFI) [5]: 25800 MFI
B1: P282BR9P1357_D2 (designed binder)
chain: LPAPKNLVVSRVTEDSARLSWIKDGHPRHFDSFLIQYQESEKVGEAIVLTVPGSERSYDLTGLKPGTEYTVSIYGVDVVYDRGQLISSNPLSAIFTT
notes: FN3 domain

Human T-cell Binding 0.2 uM (MFI) [1]: 2750 MFI
Human T-cell Binding 2 uM (MFI) [2]: 7890 MFI
koff [3]: 0.00036 s⁻¹
Cyno T-cell Binding 0.2 uM (MFI) [4]: 4100 MFI
Cyno T-cell Binding 2 uM (MFI) [5]: 27800 MFI
B2: P283BR9P1363_A10 (designed binder)
chain: LPAPKNLVVSRVTEDSARLSWQRADDILPYFDSFLIQYQESEKVGEAIVLTVPGSERSYDLTGLKPGTEYTVSIYGVDVKYDIDSRPISSNPLSAIFTT
notes: FN3 domain

Human T-cell Binding 0.2 uM (MFI) [1]: 2590 MFI
Human T-cell Binding 2 uM (MFI) [2]: 6730 MFI
koff [3]: 0.00021 s⁻¹
Cyno T-cell Binding 0.2 uM (MFI) [4]: 4100 MFI
Cyno T-cell Binding 2 uM (MFI) [5]: 10600 MFI
B3: P282BR9P1357_E5 (designed binder)
chain: LPAPKNLVVSRVTEDSARLSWWPRKYQRPFDSFLIQYQESEKVGEAIVLTVPGSERSYDLTGLKPGTEYTVSIYGVDIEWIGNRPIASNPLSAIFTT
notes: FN3 domain

Human T-cell Binding 0.2 uM (MFI) [1]: 3900 MFI
Human T-cell Binding 2 uM (MFI) [2]: 15300 MFI
koff [3]: 8.76e-05 s⁻¹
Cyno T-cell Binding 0.2 uM (MFI) [4]: 7360 MFI
Cyno T-cell Binding 2 uM (MFI) [5]: 40400 MFI
B4: P282BR9P1357_D12 (designed binder)
chain: LPAPKNLVVSRVTEDSARLSWGQYITAFSFDSFLIQYQESEKVGEAIVLTVPGSERSYDLTGLKPGTEYTVSIYGVDVAWFQGKPTWSNPLSAIFTT
notes: FN3 domain

Human T-cell Binding 0.2 uM (MFI) [1]: 2880 MFI
Human T-cell Binding 2 uM (MFI) [2]: 5930 MFI
koff [3]: 0.0001 s⁻¹
Cyno T-cell Binding 0.2 uM (MFI) [4]: 3840 MFI
Cyno T-cell Binding 2 uM (MFI) [5]: 18000 MFI
B5: P282BR9P1357_B2 (designed binder)
chain: LPAPKNLVVSRVTEDSARLSWNPSEDPQRFDSFLIQYQESEKVGEAIVLTVPGSERSYDLTGLKPGTEYTVSIYGVDVKWEGNRPVASNPLSAIFTT
notes: FN3 domain

Human T-cell Binding 0.2 uM (MFI) [1]: 2900 MFI
Human T-cell Binding 2 uM (MFI) [2]: 9780 MFI
koff [3]: 0.000458 s⁻¹
Cyno T-cell Binding 0.2 uM (MFI) [4]: 5110 MFI
Cyno T-cell Binding 2 uM (MFI) [5]: 24500 MFI
B6: P282BR9P1357_C10 (designed binder)
chain: B5 chain with N22W, P23S, S24N, E25D, D26N, P27R, Q28P, R29I
notes: FN3 domain

Human T-cell Binding 0.2 uM (MFI) [1]: 1400 MFI
Human T-cell Binding 2 uM (MFI) [2]: 5540 MFI
koff [3]: 0.00153 s⁻¹
Cyno T-cell Binding 0.2 uM (MFI) [4]: 3530 MFI
Cyno T-cell Binding 2 uM (MFI) [5]: 17300 MFI
B7: P283AR9P1362_A3 (designed binder)
chain: LPAPKNLVVSRVTEDSARLSWKRIDSPFDSFLIQYQESEKVGEAIVLTVPGSERSYDLTGLKPGTEYTVSIYGVDVKYDIDSRPISSNPLSAIFTT
notes: FN3 domain

Human T-cell Binding 0.2 uM (MFI) [1]: 2980 MFI
Human T-cell Binding 2 uM (MFI) [2]: 9830 MFI
koff [3]: 9.72e-05 s⁻¹
Cyno T-cell Binding 0.2 uM (MFI) [4]: 4100 MFI
Cyno T-cell Binding 2 uM (MFI) [5]: 25700 MFI
B8: P283AR9P1362_D4 (designed binder)
chain: B7 chain with K22V, I24E, D25H, S26D, P27S
notes: FN3 domain

Human T-cell Binding 0.2 uM (MFI) [1]: 1370 MFI
Human T-cell Binding 2 uM (MFI) [2]: 9620 MFI
koff [3]: 0.00211 s⁻¹
Cyno T-cell Binding 0.2 uM (MFI) [4]: 5520 MFI
Cyno T-cell Binding 2 uM (MFI) [5]: 26400 MFI
B9: P283AR9P1362_F2 (designed binder)
chain: B7 chain with K22R, R23K, I24K, S26H
notes: FN3 domain

Human T-cell Binding 0.2 uM (MFI) [1]: 1580 MFI
Human T-cell Binding 2 uM (MFI) [2]: 5740 MFI
koff [3]: 0.000648 s⁻¹
Cyno T-cell Binding 0.2 uM (MFI) [4]: 2270 MFI
Cyno T-cell Binding 2 uM (MFI) [5]: 12900 MFI
B10: P283AR9P1362_B8 (designed binder)
chain: B7 chain with K22W, R23T, I24S, D25P, S26L
notes: FN3 domain

Human T-cell Binding 0.2 uM (MFI) [1]: 3480 MFI
Human T-cell Binding 2 uM (MFI) [2]: 9500 MFI
koff [3]: 0.000125 s⁻¹
Cyno T-cell Binding 0.2 uM (MFI) [4]: 6050 MFI
Cyno T-cell Binding 2 uM (MFI) [5]: 34600 MFI
B11: P283AR9P1362_D3 (designed binder)
chain: LPAPKNLVVSRVTEDSARLSWPVESNAFDSFLIQYQESEKVGEAIVLTVPGSERSYDLTGLKPGTEYTVSIYGVDVEYDQHGRPRWSNPLSAIFTT
notes: FN3 domain
